Measured values published in patent US20150291967.

Key:
Assay in all cases: cell_activity
[1] = test system: TALEN ALS2_T02 right monomer (synthetic construct)
[2] = test system: TALEN ALS1_T02 left monomer (synthetic construct)
[3] = test system: TALEN ALS2_T01 left monomer (synthetic construct)
[4] = test system: TALEN ALS2_T01 right monomer (synthetic construct)
[5] = test system: TALEN ALS1_T02 right monomer (synthetic construct)
[6] = test system: TALEN ALS2_T02 left monomer (synthetic construct)
[7] = test system: TALEN ALS1_T01 right monomer (synthetic construct); settings: yeast beta-galactosidase reporter, pair with P1, 37 C (0.83 at 30 C)
[8] = test system: TALEN ALS1_T01 left monomer (synthetic construct); settings: yeast beta-galactosidase reporter, pair with P2, 37 C (0.83 at 30 C)

Which results are given for “CTGTCTCCTATTTCCTA (double strand) [ALS2_T02 right half-site (top strand)]”?
activity ([1]; endogenous site, N. benthamiana protoplasts, pair with P7, control 0.10%): 66.9 % NHEJ; activity (relative to I-SceI) ([1]; yeast beta-galactosidase reporter, pair with P7, 37 C (0.9 at 30 C)): 1

Which activity ([2]; endogenous site, N. benthamiana protoplasts, pair with P4, control 0.55%) does the source give for “TTGGACTTGTATGGGTT (double strand) [ALS1_T02 left half-site]” here?
The activity was 4.9 % NHEJ.

What about the activity (relative to I-SceI) ([2]; yeast beta-galactosidase reporter, pair with P4, 37 C (0.90 at 30 C)) of the same sequence?
The activity (relative to I-SceI) was 0.95.

Which activity ([3]; endogenous site, N. benthamiana protoplasts, pair with P6, control 0.25%) does the source give for “TAGCTTGTTCCACATTT (double strand) [ALS2_T01 left half-site]” here?
Its activity is 74 % NHEJ.

And the activity (relative to I-SceI) ([3]; yeast beta-galactosidase reporter, pair with P6, 37 C (0.9 at 30 C))?
Its activity (relative to I-SceI) is 1.

Which activity ([4]; endogenous site, N. benthamiana protoplasts, pair with P5, control 0.25%) does the source give for “TGTCATGCTGGGTCAGA (double strand) [ALS2_T01 right half-site (top strand)]” here?
Its activity is 74 % NHEJ.

What about the activity (relative to I-SceI) ([4]; yeast beta-galactosidase reporter, pair with P5, 37 C (0.9 at 30 C)) of the same sequence?
Its activity (relative to I-SceI) is 1.

How did the activity ([5]; endogenous site, N. benthamiana protoplasts, pair with P3, control 0.55%) turn out when “TATAAGTTGATTCTTAA (double strand) [ALS1_T02 right half-site (top strand)]” was run?
Its activity is 4.9 % NHEJ.

What about the activity (relative to I-SceI) ([5]; yeast beta-galactosidase reporter, pair with P3, 37 C (0.90 at 30 C)) of the same sequence?
Its activity (relative to I-SceI) is 0.95.

What does the source list for “TTCTCTCGAGTCCTAGG (double strand) [ALS2_T02 left half-site]”?
activity ([6]; endogenous site, N. benthamiana protoplasts, pair with P8, control 0.10%): 66.9 % NHEJ; activity (relative to I-SceI) ([6]; yeast beta-galactosidase reporter, pair with P8, 37 C (0.9 at 30 C)): 1

For “TTTTATTTCGTAAGCTA (double strand) [ALS1_T01 right half-site (top strand)]”, which activity (relative to I-SceI) [7] is on record?
The activity (relative to I-SceI) was 0.93.

“TTTAGTGCGATAAAGTT (double strand) [ALS1_T01 left half-site]” was tested. Which activity (relative to I-SceI) [8] did it give?
Its activity (relative to I-SceI) is 0.93.
